This passage reports Kd results from PMC5995894.

The data set relates to spDnmt2 (Schizosaccharomyces pombe). The data set can be described thus: fluorescence polarization. Particulars: binding buffer, salt, pH and temperature not given in the material (methods section text missing). (Fluorescence polarisation rises when a labelled molecule tumbles more slowly, as on binding a larger partner.)

Consider G34 tRNAAsp (unmodified), for which the Kd (as a rule, the equilibrium constant for the complex coming apart) was 960 nM.

Turning to Q34 tRNAAsp, where the note is “queuosine at position 34 (queuine enzymatically incorporated by human TGT)”, the Kd turned out to be 670 nM.
